The values below come from patent US20130243795A1 (Janssen / Centocor, published 2013).

Experiment [1] has as its target T1, Human CD27 ECD, monomeric soluble (construct limits not stated) (human, UniProt P26842 20-191).
T1 construct: extracellular domain; target of the Biacore assays; also called monomeric soluble CD27; CD27-His
The experiment in a line: Biacore SPR, purified mAb. (In general: Surface plasmon resonance follows binding to a sensor surface in real time, without labels.)

Experiment [2] concerns the target T2, Human CD27 ECD truncated (ECD 1-121, cleavage site, His6) (human).
T2 construct: also called human CD27 ECD with His Tag; CD27-His
T2 chain: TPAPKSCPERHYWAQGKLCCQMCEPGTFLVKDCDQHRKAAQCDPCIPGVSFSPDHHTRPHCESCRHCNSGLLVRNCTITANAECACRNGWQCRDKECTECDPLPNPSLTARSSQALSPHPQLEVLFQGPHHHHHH
As to the kind of experiment: ProteOn SPR, purified mAb, CD27-His.

Experiment [3] deals with T1, Human CD27 ECD, monomeric soluble …. As to the kind of experiment: Biacore SPR, purified mAb; reference M160.
Experiment [4] shares this target. As to the kind of experiment: Biacore SPR, purified mAb; reference M158.
Experiment [5] shares this target. As to the kind of experiment: Biacore SPR, purified mAb; reference M166.

T1 sequence (P26842 20-191): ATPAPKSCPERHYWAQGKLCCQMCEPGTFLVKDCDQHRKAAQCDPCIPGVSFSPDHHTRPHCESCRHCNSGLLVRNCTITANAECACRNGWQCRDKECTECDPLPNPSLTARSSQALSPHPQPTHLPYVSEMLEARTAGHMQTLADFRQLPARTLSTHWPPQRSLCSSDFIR

B1: M169 (antibody, V domains shown)
VH: EVQLVQSGAEVKKPGESLKISCKGSGYAFSSSWMNWVRQMPGKGLEWMGRIYSGDGDTNYNGKFKGQVTISADKSISTAYLQWSSLKASDTAMYYCARSDYYGDYGFAYWGQGTLVTVSS
VL: DIQMTQSPSSLSASVGDRVTITCKASQSVDYAGDSFMNWYQQKPGKAPKLLIYAASNLESGVPSRFSGSGSGTDFTLTISSLQPEDFATYYCQQSNEDPYTFGQGTKVEIK
notes: isotype not restated (path 2 mAbs were IgG4 Ser to Pro, Ala/Ala / kappa); also called H221, L219; CM169
B1: in experiment [1], the Kd was determined as 0.069 nM, the koff is 0.000102 s⁻¹ and the kon worked out at 1.48e+06 M⁻¹ s⁻¹. Also, in experiment [2], the Kd stood at 0.059 nM, the koff came out at 0.000139 s⁻¹ and the kon was found to be 2.36e+06 M⁻¹ s⁻¹. For the same molecule, the “fold improvement in KD against the corresponding VH1-46 variant” value (“fold improvement in KD” below) in experiment [3] was found to be 2 fold.

B2: M171 (antibody, V domains shown)
VH: EVQLVQSGAEVKKPGESLKISCKGSGYAFSSSWMNWVRQMPGKGLEWMGRIYSGDGDTNYNGKFKGQVTISADKSISTAYLQWSSLKASDTAMYYCARSDYYGDYGFAYWGQGTLVTVSS
VL: DIQMTQSPSSLSASVGDRVTITCKASQSVDYAGDSYMNWYQQKPGKAPKLLIYAASNLESGVPSRFSGSGSGTDFTLTISSLQPEDFATYYCQQSNEDPYTFGQGTKVEIK
notes: isotype not restated (path 2); also called H221, L220
Take B2: in experiment [1], the Kd was found to be 0.234 nM, the koff turned out to be 0.000358 s⁻¹ and the kon worked out at 1.53e+06 M⁻¹ s⁻¹. Also, the “fold improvement in KD” value in experiment [4] turned out to be 2 fold.

B3: M170 (antibody, V domains shown)
VH: EVQLVQSGAEVKKPGESLKISCKGSGYAFSSSWMNWVRQMPGKGLEWMGRIYSGDGDTNYNGKFKGQVTISADKSISTAYLQWSSLKASDTAMYYCARSDYYGDYGFAYWGQGTLVTVSS
VL: DIQMTQSPSSLSASVGDRVTITCKASQSVDYAHESFMNWYQQKPGKAPKLLIYAASNLESGVPSRFSGSGSGTDFTLTISSLQPEDFATYYCQQSNEDPYTFGQGTKVEIK
notes: isotype not restated (path 2); also called H221, L217
B3: in experiment [1], the Kd amounted to 0.07 nM, the koff is 0.000116 s⁻¹ and the kon was found to be 1.66e+06 M⁻¹ s⁻¹. For the same molecule, the “fold improvement in KD” value in experiment [5] worked out at 2 fold.

By Kd is commonly meant the concentration at which binding is half-saturated. Low readings indicate higher affinity, high ones lower affinity. The koff is the first-order rate constant of dissociation. Higher therefore signals fast dissociation. Usually kon stands for the second-order rate constant of association.
